Measured values from the supplement of paper PMC10201428.
± gives the standard deviation of the averaged measurements.

These sequences were tested on VchCAST RNA-guided transposition machinery (E. coli BL21(DE3) host, lacZ target) (assay: relative integration efficiency (T-RL orientation) vs wild-type transposon end (log2 (normalized fold change)); transposon end mutated: left end; higher = more efficient transposition).
Protocol: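 Pooled, barcoded VchCAST (Tn6677) mini-transposon donor libraries; each variable transposon-end sequence sits in a fixed pDonor mini-transposon context (10-bp barcode and cargo not included). Left- or right-end libraries were co-transformed with pEffector (TniQ-Cascade, TnsABC, lacZ crRNA, T7, 0.1 mM IPTG) into E. coli BL21(DE3) and grown 18 h at 37 C. T-LR and T-RL junction amplicons were sequenced; output/input barcode fold change was normalised to the mean of four wild-type barcodes and log2-transformed. Two biological replicates; zero-count/undetected variants carry floor values (-10 / -15), censored here. Barcode uncoupling by PCR recombination adds noise.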

Row | Sequence | relative integration efficiency (log2)
1 | AATGTTGTTGATGCAACCATAAAGTGATATTTAATAATTATTTATAATCCAACCATATATTGATATCTCAGCAACTTAACCACAAAAACAAAACAACCATAAGTTGATATTTTTGTGAATCGAGTATTTCAGCAAAACTACTGCAGTAAGAA | -5.59 ± 1.3
2 | AATGTTGTTGATGCAACCATAAAGTGATATTTATTGACGGCTAGCTCAGTCCTAGGTATAGTGCTAGCAACCATATATTGATATCTCACAAAACAACCATAAGTTGATATTTTTGTGAATCGAGTATTTCAGCAAAACTACTGCAGTAAGAA | -6.66 ± 0.33
3 | AATGTTGTTGATGCAACCATAAAGTGATATTTAATAACTTCGTATAGCATACATTATACGAAGTTATCAACCATATATTGATATCTCACAAAACAACCATAAGTTGATATTTTTGTGAATCGAGTATTTCAGCAAAACTACTGCAGTAAGAA | -4.52 ± 0.95
4 | AATGTTGTTGATGCAACCATAAAGTGATATTTAATAATTATTTATAATCAGCAACTTAACCACAAAACAACACGCGCGGTCGCGAGACACCCCACCAACGCCTGGTCGCGGGGGTGTCCGATCTGATTTCAGCAAAACTACTGCAGTAAGAA | -7.6 ± 2.4
5 | AATGTTGTTGATGCAACCATAAAGTGCGCGGGCATAATTATTTATAATCAGCAACTTAACCACAAAACAACCATATATTGCGCGAGAACAAAACAACCATAAGTTGCGCGGGGTGTGAATCGAGTATTTCAGCAAAACTACTGCAGTAAGAA | -7.87 ± 2.2
6 | AATGTTGTTCAACCATAAAGTGATATTTAATAATTATTTATAATCAGCAACTTAACCACAAAACAACCATATATTGATATCTCACAAAACAACCATAAGTTGATATTTTTGTGAATCGAGTATTTCAGCAAAACTACTGCAGTAAGAAAGTT | -7.77 ± 0.46
7 | AATGTTGTTGATGCAACCATAAAGTGATATTTAATAATTCGGGCGCCGACTACCAGGCCAACACCCCACCAACGCGCGGTCGCGAGACACCCCACCAACGCCTGGTCGCGGGGGTGTCCGATCTGATTTCAGCAAAACTACTGCAGTAAGAA | -7.09 ± 1
8 | AATGTTGTTGATGCAACCATAAAGTGATATTTAATAATTATTTATAATCCAACCATATATTGATATCTCACAAAACAACCATAAGTTGATATTTTTGTGAATCGAGTATTTCAGCAAAACTACTGCAGTAAGAAAGTTACTTCGTGGTATGG | -6.76 ± 0.87
9 | AATGTTGTTGATGCAACCATAAAATGATAATTAATAATTATTTATAATCAGCAACTTAACCACAAAATAATTATCATTTTATGGTTGACAAAACAACCATAAAATGATAATTATGTGAATCGAGTATTTCAGCAAAACTACTGCAGTAAGAA | -5.2 ± 1.6
10 | AATGTTGTTGATGCAAAACGCCCTGTCGCGGGCCGCCGGCGGGCGCCGACTACCAGGCCAACACCCCACCAACGCGCGGTCGCGAGACACCCCACCAACGCCTGGTCGCGGGGGTGTCCGATCTGATTTCAGCAAAACTACTGCAGTAAGAA | < -10
11 | AATGTTGTTGATGCAACCATAAAGTGATATTTAATAACTTCGTATAGTATACCTTATACGAAGTTATCAACCATATATTGATATCTCACAAAACAACCATAAGTTGATATTTTTGTGAATCGAGTATTTCAGCAAAACTACTGCAGTAAGAA | -3.19 ± 0.87
12 | AATGTTGTTGATGCAACCATAAAGTGATATTTATATTAATAAATATTAGTCGTTGAATTGGTGTTTTCAACCATATATTGATATCTCACAAAACAACCATAAGTTGATATTTTTGTGAATCGAGTATTTCAGCAAAACTACTGCAGTAAGAA | -3.31 ± 1.4
13 | AATGTTGTTGATGCAACCATAAAGTGATATTTAAGAATTATGTCGTTCTAAACAAGAGATATTAGAACAACCATATATTGATATCTCACAAAACAACCATAAGTTGATATTTTTGTGAATCGAGTATTTCAGCAAAACTACTGCAGTAAGAA | -4.29 ± 1.2
14 | AATGTTGTTGATGCAACCATAAAGTGATATTTAATAATTATTTATAATCAGCAACTTAACCAACCATATATTGATATCTCACAAAACAACCATAAGTTGATATTTTTGTGAATCGAGTATTTCAGCAAAACTACTGCAGTAAGAAAGTTACT | -5.17 ± 1.5
15 | AATGTTGTTGATGCAACCATAAAGTGATATTTAATAATTATTTATAATCAGCAACGGCCAACACCCCACCAACGCGCGGTCGCGAGACACCCCACCAACGCCTGGTCGCGGGGGTGTCCGATCTGATTTCAGCAAAACTACTGCAGTAAGAA | -6.79 ± 1.6
16 | AATGTTGTTGATGTGTTGACAACCATAAAGTGATATTTAATAATTATTTATAATCAGCAACTTAACCACAAAACAACCATATATTGATATCTCACAAAACAACCATAAGTTGATATTTTTGTGAATCGAGTATTTCAGCAAAACTACTGCAG | -2.23 ± 0.63
17 | AATGTTGTTGATGCAACCATAAAGTGATATTTAATAATTATTTATAATCAGCAACTTAACCACAAACACCAACGCGCGGTCGCGAGACACCCCACCAACGCCTGGTCGCGGGGGTGTCCGATCTGATTTCAGCAAAACTACTGCAGTAAGAA | -6.34 ± 0.81
18 | AATGTTGTTGATGCAACCATAAAGTGATATTTAATAATTATTTATAATCAGCAACCAACCATATATTGATATCTCACAAAACAACCATAAGTTGATATTTTTGTGAATCGAGTATTTCAGCAAAACTACTGCAGTAAGAAAGTTACTTCGTG | -6.44 ± 0.52
